From article PMC3537844 (Nature structural & molecular biology, 2012) come the findings set out here.

The data set concerns the molecule itself. Nature of the data set: crystal structure.

B1: Methylated MxiAC (318-686) (domain or fragment, Shigella flexneri, UniProt P0A1I5 318-686, looked up)
chain: VVEKEKSLSESDSSGYTGTFDIDNSHDSSLAMIENLDAISSETVPLILLFAENKINANDMEGLIERIRSQFFIDYGVRLPTILYRTSNELKVDDIVLLINEVRADSFNIYFDKVCITDENGDIDALGIPVVSTSYNERVISWVDVSYTENLTNIDAKIKSAQDEFYHQLSQALLNNINEIFGIQETKNMLDQFENRYPDLLKEVFRHVTIQRISEVLQRLLGENISVRNLKLIMESLALWAPREKDVITLVEHVRASLSRYICSKIAVSGEIKVVMLSGYIEDAIRKGIRQTSGGSFLNMDIEVSDEVMETLAHALRELRNAKKNFVLLVSVDIRRFVKRLIDNRFKSILVISYAEIDEAYTINVLKTI
modifications: reductive methylated by dimethylamine borane complex (DMAB) and formaldehyde
Broadly, the stoichiometry N is the number of molecules, sites or subunits per partner or assembly. Take B1: the “stoichiometry N” value was determined as 9.
